Each block holds one molecule with its values, some of them ahead of it.
Legend:
[1] = target: CD163 ectodomain (CD163-WT) (human) (UniProt Q86VB7)
[2] = target: haptoglobin Hp(1-1) (human) (UniProt P00738); test: MST; Monolith NT.115, 25 °C, 20 mM HEPES pH 7.5, 150 mM NaCl, […] CaCl2; Alexa Fluor 647-labelled Hb (200 nM) or Hp(1-1) (500 nM or 1.0 μM) held constant, CD163 ectodomain (WT or R809T-BAP) titrated
[3] = target: T1, CD163-WT ectodomain (C-tag, without BAP tag) (human, UniProt Q86VB7-1 46-1050); test: MST; Monolith NT.115, 25 °C; 20 mM HEPES pH 7.5, 150 mM NaCl, 2.5 mM CaCl2; fluorescent Hb (200 nM) or Hp(1-1) (0.50 µM) mixed with two-fold dilution series of CD163 (WT from 24.4 or 37.9 µM, R809T from 41.5 µM); fit to the combined triplicate; conditions: both partners purified
T1 construct: Cloned into pHLsec with a C-terminal GAA linker and a C-tag; Dimers and trimers in the cryo-EM structures; also called WT CD163; CD163A

IC50 of competition for the uptake of 50 nM labelled Hp(2-2)Hb into HEK293 cells expressing full-length CD163-GFP, FACS [1]: 0.04 µM
uptake of fluorescently labelled Hp(2-2)Hb (0-600 nM) into HEK293 cells with or without full-length CD163-GFP (residues 46-1156), FACS [1]: 10 fold
Molecule: Hp(2-2)Hb (haptoglobin isoform 2 - haemoglobin complex) (from UniProt P00738-1 19-160; P00738-1 162-406)

Kd [2]: 27 µM
Molecule: CD163 ectodomain (CD163-WT) (from UniProt Q86VB7-1 46-1050) (domain or fragment)

Kd [3]: 26.6 µM
B1: Haptoglobin Hp(1-1), fluorescently labelled (natural protein)
chain 1: VDSGNDVTDIADDGCPKPPEIAHGYVEHSVRYQCKNYYKLRTEGDGVYTLNNEKQWINKAVGDKLPECEAVCGKPKNPANPVQ
chain 2: ILGGHLDAKGSFPWQAKMVSHHNLTTGATLINEQWLLTTAKNLFLNHSENATAKDIAPTLTLYVGKKQLVEIEKVVLHPNYSQVDIGLIKLKQKVSVNERVMPICLPSKDYAEVGRVGYVSGWGRNANFKFTDHLKYVMLPVADQDQCIRHYEGSTVPEKKTPKSPVGVQPILNEHTFCAGMSKYQEDTCYGDAGSAFAVHDLEEDTWYATGILSFDKSCAVAEYGVYVKVTSIQDWVQKTIAEN
modifications: Alexa Fluor 647 (NHS ester labelling of the protein; sites not stated) | Alexa Fluor 647 (NHS ester labelling of the protein; sites not stated)
